The series has as its system Saccharomyces cerevisiae. As to the kind of experiment: transcriptional activation domain activity (GFP:mCherry ratio, weighted mean of sorted bins, harmonized to initial dataset scale) (arbitrary fluorescence ratio units); higher = stronger transcriptional activation. The note with it: beta-estradiol 1 µM; induction time 4 h. Put shortly: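 Activation activity, the read-weighted mean of bin median fluorescence averaged across barcodes, was linearly mapped onto the scale of the initial dataset. It was measured for barcoded protein tiles fused to an estradiol-inducible synthetic transcription factor at URA3 in GFP-reporter yeast diploids. Cultures diluted 1:5 into SC with 1 uM beta-estradiol were held 4 hours at 30 °C, sorted into 8 bins by GFP:mCherry ratio, and barcode-sequenced, and tiles under 50 reads were discarded.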

In the case of “HSTLLYCHLLLLPFLSSCWALFFLFPLSFGSLFFLFFFFLFLFGAFSFFLSSL”, the “transcriptional activation domain activity” value came to 39600. In the case of “HSVHAGLIFPLFHRHCFYMLESSLRTKSDRLVFNSLSSHAGVIAWLRTQGVLQ” it was 65500; in that of “HTFVRICKLAGDLIDWVGMCVDCGKCSATQGRDCLDVIMRLSIMAVHGLRFVG”, 51400; in that of “HTKSTESLVQLDDADGSRLDKVSGSLIQSLLASLGAQHKLVADAALTFLTAGR”, 43900. In the case of “HTQENEKVMWNIGSWNAPSLTNSWDSPPGNRTGAVTIGDESINGSEMPDFSLD” it was 36100. In the case of “HTQPNLVPWLRCFPADAISVELISHEYIIRILRPILPADWQRPLFYSHRIRMY” it was 28900. “HTRSLRYGKLRNGTLVRVPPTLIVRLKSHFHSLPCGVDLVLGLNGYIWVCMHI”: the “transcriptional activation domain activity” value turned out to be 52700. Take “HTVGGKPSELMRSSEEDEDKICGAIGCDDTESAPSNACGRCKRVYYCSRACQT”: the “transcriptional activation domain activity” value turned out to be 42800. Take “HVAMRAAVKANNSVMHRLLRNWGENRRRHFHGLLLVRLFRTTLVFSCADEVAA”: the “transcriptional activation domain activity” value came out at 53300. As for “HVDQWTVIEQCLLYHQTNFIYFLFFAPLPPFLCLFFLLFVSLVFLCFDPFPLI”, the “transcriptional activation domain activity” value turned out to be 42500.

In the case of “HVDSYLRYLISHCKGRISSRGLVTARFLERRMRHLVWLLKVECVKWEYSPYTR”, the “transcriptional activation domain activity” value worked out at 79400. In the case of “HVERGRDVTKGFVKCHTHMRTTCVGSIRFSHAASFAPSVCLGVGVKSLDRRPL” it was 37300; in that of “HVFPILLRLVGGYALLRKLIDSIEEAYLAYHMVASQTYFMSTSLTFCAILARM”, 71200. As for “HVGRLMPIIAYFRAVIKCIEMLGVKRPVLVCPLSSFHGGFYVGGLMFQCVDRK”, the figure is 62600; as for “HVLEYACSIAISRQQERRKRKAIRKSESLNALAKALLRLLSVFSTIRLASGQL”, 91500. “HVNVPTQFLSMVCPMAESIVEMVNGRMNLVGTTNYWRMIILLRPYVFQCGAAI”: the “transcriptional activation domain activity” value was 44200. In the case of “HVQIASSDVIKRVSSRVAWCLKSILTILLNVNQLEMSVLRSRVLRLIVFFLHY” it was 62300. For “HVYGPTLVVHRYSLPLLFYYFVLFMFLESLPRLFRCISLFFQLAQLLMLLVPI”, the “transcriptional activation domain activity” value was 34100. As for “HWDGVCRLFFFIYYIYFYFSMRACLLVLILCFESIVFGLVSFLVYLFSPFFFR”, the figure is 40900.

As for “HWKLNLYFMLTNVIVVLPLYQVYIYLLGCHPKSPLYHHRVKLSVFAWSIWFYC”, the “transcriptional activation domain activity” value came to 36200. As for “HWRAFVTGGGSAFWLLAYGIFYWASRLSLDSFTSVILYLGYLVLLALMDFLVT”, the figure is 20300; as for “HWSYARNANMIVNFFYKNIMGIGVLWWFQIYCGWSTTYVFEYTYLLFWNVFWS”, 56200; as for “HWSYYRNGNMIINFFYKEIINIGYLFWFQIYCAWSTAQAIDYVYLLFWNAFWT”, 77100.

Consider “HYFLVIMVLGMIELLRFPETRDAGVSLIRELLAFKFAKTSWDVVICNQLEKYL”, for which the “transcriptional activation domain activity” value turned out to be 41300. As for “HYNALNGRWKVFRNEKDEDSIRVVAGMVWWGKILVVTCVEKGVFQIRLFSSIN”, the figure is 7550; as for “HYRIRLIYFMHFVAFGFGLSSILVNLFLCRPLRKNWMTDVNGRCFNRDAFYYA”, 58600; as for “IAAAAEQEEEDEASTSSTNTSNGDANARAHAHAHWESRRERELHADHRGGAGG”, 31600. As for “IAAAGSNAASGHPDAKRAKTGASGSRAGSPSGSPPGSKPASRAGSPGAPRVPA”, the figure is 16900; as for “IAHRYLVGYVYVRTHSQTGGLVYIWLLKRLGSLLSLQPILLGLIFLSRHLWIE”, 55000; as for “IAILRLYSEPDVDLLRLSSQVLAASLLLDDHFICDIKNIRSVVAMIPRVLTLP”, 46800. In the case of “IAIQVMNRVLFFKAFKNVTRYSCAYKLCLVFFFFYIVINGKNFYVIEYAHLSM” it was 49300; in that of “IAKEIGKRLGFDENSEISYLAGIWSHCIAQQLIWNVAGGLLRVRGWLWKINLS”, 79900. Regarding “IALCEAVYIWLAKQLYQEFGWKIYKKIGADLIKRRMYRDYHICLMLLKLDLFF”, the “transcriptional activation domain activity” value stood at 64200. As for “IAMQPGEHQYDFEAHDFGLDLSDDLITQLEAGIGEYAWGSMPMDGNFWDQLYW”, the figure is 127000; as for “IAPCGSWTPYTCLILGSIISLFIDFDVFAPFSYRGFITSYFGLAWFWFMFLFW”, 56200. In the case of “IAQLRRDLFHAVWRLILTPALAEAYCHGIVIMCGDGVLRRVFPRFLLYSADYP” it was 63900; in that of “IAQRLEILIYSHIVCIPLIASFSCLSWIFWMEYYFAWWFDSVITIRDINWHML”, 36500. In the case of “IARADRTSPNDGGVALKKHVVVFASRPGLGLLIAAYLHKNLRSDWNIQLILGC” it was 66700; in that of “IARPISFFVLGASAAFTTIRALGPSTHPLISVNYFSLWCTFVSLLALLLCPLL”, 58700; in that of “IARSRNLPLDVVMYLGSDEENDMMVDTLLLLHDYISKVRSLILRVNFMTLSCA”, 66700.

With “IAYPFFFIHSILLNLYYALLPYAFYLYLYIYIFLSFFSRLTVSSSFIPPLLSP”, the “transcriptional activation domain activity” value is 65000. As for “ICFSPPLISCGGFFPSDLLPFLFHSFSFYFLTCWLPVYFLPPLFVACFFICLP”, the figure is 60100.

“ICGMWLRGSFTFLSTVKDPHVLLRTMIKRDPELGFLWVGAFITGCHDRALREG”: the “transcriptional activation domain activity” value worked out at 71200. As for “ICGSVLKELEHKPFFIWFLRCVYHKVLVVLKNGPSAVVSVAEVQRPPQIGDEV”, the figure is 30400; as for “ICHYKGSLIGKHFKSLSQVMPFIIYDLVPSTVLNAWTIMGKLIVLIWHTKILN”, 38600; as for “ICIIPFVNGFLCEPILPLFFFCSFLILSESWFIFLHWFGSWSLVIYFGSWCLF”, 79700. In the case of “ICIIPFVNGFLCEPILPLVFFCSSLTLSESWFIFCIGLVVGLWLYTLVAGVCF” it was 37300; in that of “ICIPLPFQTLVCSHIVLTPLFYPLFCTPLDIFYVSNYSCLVLVLSLPFHFFLH”, 39400; in that of “ICISILLIPGDLVTVFSRIGRSEAANIAFSIVLMPSMWSGYFWISLCYLSFWT”, 52700. As for “ICLALCTVLTTLTLGVSLYFGVVLVRSDFLWQVSFRDLTWSYFVAFGAQVIVD”, the figure is 41100; as for “ICNFFYKNILGMGVLFWYQIYCGWSSTYVYNYVYLLFWNVFWTLCPVIAIGLF”, 41800. For the sequence “ICVLEKMLLFYFYFPLPFKLTLDQHLSLFSLLCFFFRVMPYTFWLKSYPMLVL”, the “transcriptional activation domain activity” value worked out at 74200. As for “ICYVSLCVVISMCDLLVLWRCWVIWTALDHHLAYLVTFVPVIMLLSSFVMGTF”, the figure is 44100; as for “IDDFEQFRTEYTIDLSDFQNTERLKFLEEYYWKTLNFTTPMYGADTPGSIFPE”, 93300; as for “IDFHQHESLIGTEDAFFWFLVPLIGVVCIGVCTVLHYVVLIFTHSFRLLYSLV”, 26700. Consider “IDGIDLEEAGNFREIETYYRDYLSPIDRLSIISVQENNVIFQDKGNVSRENIE”, for which the “transcriptional activation domain activity” value was 73100. In the case of “IDGVWFAYCHLSLFALLGEHISLNATNSEFPLVPSQSWKWDDFLFSISFLETL” it was 71300; in that of “IDHTDIHAHHADAHDDSFIESEEWLSKFIMDSQIDNDLKLNINHFNDIGFNNL”, 154000. As for “IDPHGYDANGLYEIGTIVSSIAVCVANFFVVFSLYSYTWIQALVISLSILVYY”, the “transcriptional activation domain activity” value came to 45700. On to “IDSEAEDASRNGKIPKGKKSKKNHCESETEEVIEKQPASTTQKSSKKKHCMRK”, for which the “transcriptional activation domain activity” value amounted to 19600. In the case of “IDVCLRERDANDYSRQVLGHYWENGIPLSSNRIIHDLLVILRNVIARVITAAK” it was 42300; in that of “IEAEEAEEIGVEHLLRDIASSSGAPSSTLLTTQSLSTRVAAQLNALQGLRARL”, 66900. As for “IEDQTKYVTQAYLAATRIVTIISKLVETRHLIELPIYIRQSVTYAVLILFRLH”, the figure is 56400; as for “IEDSRRVDRGDEDKGREDHTRHRRRGSTDTGRRDERSHRDRRRSRSRSPASRR”, 21900.

As to “IEGPTLSDWFRIFERAFSLRELHWVYNYEDSYAMKPDRVIVLLNLWQLVAPNV”, the “transcriptional activation domain activity” value was found to be 42800. In the case of “IEHKYTTQVNVFFGIVFSELLKSNTAVRGCLMVGIARVAKSGWMSGLNHIEVF” it was 68500; in that of “IEKLGITVLQREVVNNGLEISHDFRALRVALCARQPLLQVVWFKNHLPSVYYF”, 69900.

As for “IEKNMYPVGTLLTLADHGFNGWLKTTLLPYLNLLHNLDVLDPELLTIFTSFIL”, the “transcriptional activation domain activity” value amounted to 54700.

Take “IELRARVFNYSNMHALKRCTFRLNRFETAFNFKLLWLFFVYYTRGIEVNRRNL”: the “transcriptional activation domain activity” value worked out at 58600. As for “IELSRNFVNVPDFVCFFNLPDNLSVLYTLEIVYFGQLLLFHSIIYALVLIRFW”, the figure is 47900; as for “IENFLSPSFLEFIPHLANEYGFDYELVTYKWPTWLIHQKEKQRLIWGYKILFL”, 56800. Take “IETLYRLVTTHSGQDYFIQSVHHGILLLNLLYMDIPYFTEWVGLSCQLYNVIT”: the “transcriptional activation domain activity” value is 27700.

In the case of “IFAFGYWLEESGKLLRLDLFTRFYAWGRIVLPRVGDAMIFYWENDTFGIRRGF”, the “transcriptional activation domain activity” value was 69000. In the case of “IFASALLVACFIHVKGVLDFSLYILKITCRADLDVDEWRSHFGMGEYVVYVGM” it was 61400.

For the origin of these results see the supplement of paper PMC12636428.
